For test [1], the target named is T1, MAGE-A4 peptide on HLA-A*02:01 (human).
T1 peptide: NYKRCFPVI
The experiment in a line: killing. The procedure:
(§1) The T2 cells, the T2-A24 cells, and T2-A2 cells prepared by transfecting HLA-A0201 gene into T2 cells were washed 3 times with RPMI 1640 medium, and the washed cells were suspended in RPMI 1640 medium so as to have a density of 5×10⁶ cells/mL. P143 or P715 was added to 1 mL each of the above-mentioned cell suspensions so as to have a final concentration of 10 μM, and the mixture was allowed to stand at room temperature for 15 minutes. Thereafter, 1 mL each of RPMI 1640 medium containing 10% FCS was added thereto, and the mixture was incubated at 37° C. for 1 hour. […]
(§2) The ms69 cells, the RNA-transduced ms69 cells, the #2-28 cells, the CD8 positive cells, and the RNA-transduced CD8 cells were washed twice with RPMI 1640 medium, and the washed cells were suspended in RPMI 1640 medium containing 10% FCS so as to have a density of 2×10⁶ cells/mL, 1×10⁶ cells/mL, 5×10⁵ cells/mL, 2.5×10⁵ cells/mL, 1.25×10⁵ cells/mL, and 6.25×10⁴ cells/mL (effector cells), respectively, and a 100 μL portion thereof was put in each well of a 96-well V-bottom plate. […] The mixture was reacted at 37° C. for 4 hours, and thereafter the supernatants were collected by centrifugation, and an amount of ⁵¹Cr released to 100 μL of the supernatant was determined by using a gamma counter. The specific cytotoxic activity was calculated from the measured value of radioactivity according to the following formula.

In test [2] the target is T2, SAGE peptide on HLA-A*24:02 (human).
T2 peptide: LYATVIHDI
As to the kind of experiment: killing. The procedure:
as §1, §2

Test [3] addresses T3, MAGE-A4 peptide on HLA-A*24:02 (human).
T3 peptide: NYKRCFPVI
The experiment in a line: multimer staining.

B1: HLA-A24-restricted, MAGE-A4 143-151-specific TCR of CTL clone #2-28 (SEQ ID NOs 1 and 2) (TCR, V domains shown)
Valpha: AQSVSQHNHHVILSEAASLELGCNYSYGGTVNLFWYVQYPGQHLQLLLKYFSGDPLVKGIKGFEAEFIKSKFSFNLRKPSVQWSDTAEYFCAGRGGGNKLTFGTGTQLKVEL
Vbeta: DTGVSQNPRHKITKRGQNVTFRCDPISEHNRLYWYRQTLGQGPEFLTYFQNEAQLEKSRLLSDRFSAERPKGSFSTLEIQRTEQGDSAMYLCASSLAQGAGETQYFGPGTRLLVL
As for B1, the binding result in test [1] is “no recognition”; in test [2], “no recognition”; in test [3], “recognises”.

Source of the values: US20090324566A1 (published 2009).
